Key:
TALE13 +39 FokI = target: T1, TALE13 +39 FokI (Xanthomonas axonopodis (engineered)); assay: cleavage_in_vitro; two inverted sites, 16 bp gap; NEB Buffer 2, 37 C; details: tags: FLAG, NLS, chain copies: 2
T1 chain: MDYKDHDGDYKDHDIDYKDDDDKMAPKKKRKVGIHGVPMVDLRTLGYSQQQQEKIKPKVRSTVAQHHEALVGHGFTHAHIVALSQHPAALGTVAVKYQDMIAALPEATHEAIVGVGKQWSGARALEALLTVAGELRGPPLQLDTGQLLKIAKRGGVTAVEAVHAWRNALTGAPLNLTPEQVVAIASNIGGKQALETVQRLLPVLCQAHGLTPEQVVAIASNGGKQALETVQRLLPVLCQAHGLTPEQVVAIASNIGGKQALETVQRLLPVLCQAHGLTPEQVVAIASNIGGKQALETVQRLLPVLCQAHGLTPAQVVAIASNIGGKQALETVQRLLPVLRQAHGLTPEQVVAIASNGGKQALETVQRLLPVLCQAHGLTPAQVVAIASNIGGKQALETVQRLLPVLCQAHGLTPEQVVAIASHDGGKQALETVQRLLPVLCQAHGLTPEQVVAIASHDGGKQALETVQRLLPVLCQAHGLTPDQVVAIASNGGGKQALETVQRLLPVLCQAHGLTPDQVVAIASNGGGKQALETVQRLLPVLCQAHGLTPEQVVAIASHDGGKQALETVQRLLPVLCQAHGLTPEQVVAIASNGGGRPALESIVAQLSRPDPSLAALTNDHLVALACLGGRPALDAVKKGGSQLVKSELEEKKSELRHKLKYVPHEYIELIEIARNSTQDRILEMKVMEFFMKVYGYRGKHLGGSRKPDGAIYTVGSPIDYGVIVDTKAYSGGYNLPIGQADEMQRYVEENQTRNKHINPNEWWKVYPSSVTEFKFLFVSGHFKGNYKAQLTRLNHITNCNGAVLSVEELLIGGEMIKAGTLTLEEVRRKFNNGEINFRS
Description: (§1) TALE domain fusions were also constructed using Fold cleavage half domains. For these examples, wild type FokI half cleavage domains were used so that for nuclease activity, a homodimer must be formed from two of the fusions. For these fusions, the TALE13 DNA binding domain was fused to each FokI half domain by cloning the TALE DNA binding domain into a plasmid adjacent to FokI-specifying sequence. In addition, various linkers were tested for use between the DNA binding domain and the nuclease domain. Linkers L2 and L8 were used which are as follows: L2=GS (SEQ ID NO:71) and L8=[…] (SEQ ID NO:72). The target sites were cloned into a TOPO2.1 target vector (Invitrogen) with varying gap spacings between each target binding site such that the two were separated from each other by 2 to 22 bp. PCR amplification of an approximately 1 kb region of the target vector was done to generate the target DNAs. The TALE DNA binding domains were also truncated as described previously, and are described using the same nomenclature as described above in Examples 2 and 6. The TALE domain nuclease fusion clones were expressed in the TNT Rabbit Reticulocyte Lysate system by adding 5 μL of water containing 250 nanograms of the nuclease fusion clone plasmid to 20 μL of lysate and incubating at 30° C. for 90 minutes.
(§2) The lysate was then used to cleave the target DNAs as follows: 2.5 μL of lysate were added to a 50 μL reaction containing 50 nanograms of PCR-amplified target DNA and a final Buffer 2 (New England Biolabs) concentration of 1×. The cleavage reaction was for one hour at 37° C., followed by a 20 minute heat inactivation stage at 65° C. The reaction was then centrifuged at high speed to separate the target DNA from the lysate, causing the lysate to condense into a pellet in the reaction well. The DNA-containing supernatant was pipetted off and run on an ethidium bromide-stained agarose gel (Invitrogen) to separate intact target DNA from cleaved target DNA. The agarose gel was then analyzed using AlphaEaseFC (Alpha Innotech) software to measure the amount of target DNA present in the large uncleaved DNA band and the two smaller DNA bands resulting from a single cleavage event of the target DNA. The percentage of cleaved DNA out of the total amount of target DNA loaded into the gel represents the percent cleavage in each reaction.

TALE13 +50 FokI = target: T2, TALE13 +50 FokI (Xanthomonas axonopodis (engineered)); assay: as above; details: tags: FLAG, NLS, chain copies: 2
T2 chain: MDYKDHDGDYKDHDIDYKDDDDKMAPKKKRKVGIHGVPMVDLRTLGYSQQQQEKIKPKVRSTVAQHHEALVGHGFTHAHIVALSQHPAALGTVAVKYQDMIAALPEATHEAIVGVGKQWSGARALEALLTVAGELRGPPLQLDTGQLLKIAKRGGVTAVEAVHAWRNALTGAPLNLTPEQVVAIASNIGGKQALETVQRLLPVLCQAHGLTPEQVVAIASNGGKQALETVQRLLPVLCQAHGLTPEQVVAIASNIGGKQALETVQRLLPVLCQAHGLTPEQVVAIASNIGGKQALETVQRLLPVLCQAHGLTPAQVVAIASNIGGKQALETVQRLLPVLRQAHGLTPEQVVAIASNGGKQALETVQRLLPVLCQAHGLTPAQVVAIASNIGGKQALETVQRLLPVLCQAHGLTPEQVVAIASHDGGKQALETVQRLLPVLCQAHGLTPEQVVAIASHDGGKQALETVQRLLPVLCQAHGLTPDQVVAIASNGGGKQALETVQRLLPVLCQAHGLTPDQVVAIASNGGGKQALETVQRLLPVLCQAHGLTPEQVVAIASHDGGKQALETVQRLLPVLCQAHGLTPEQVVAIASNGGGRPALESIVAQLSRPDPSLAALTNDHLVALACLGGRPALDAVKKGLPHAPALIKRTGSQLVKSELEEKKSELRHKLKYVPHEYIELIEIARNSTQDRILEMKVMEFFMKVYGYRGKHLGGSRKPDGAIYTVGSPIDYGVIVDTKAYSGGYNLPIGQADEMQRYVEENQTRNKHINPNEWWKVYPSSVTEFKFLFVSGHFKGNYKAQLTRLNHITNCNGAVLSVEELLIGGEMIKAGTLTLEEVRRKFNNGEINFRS
Description: as §1, §2

B1: TALE13 target (dsDNA)
DNA 1: TATAAATACCTTCT
DNA 2: AGAAGGTATTTATA
In the case of B1, the activity (TALE13 +39 FokI) is reported as 100 % cleavage and the activity (TALE13 +50 FokI) is reported as 83 % cleavage.

Reference: patent publication US20110301073, “Novel DNA-binding proteins and uses thereof” (Sangamo BioSciences, Inc., published 2011)
